Experimental data taken from publication PMC5800781.

B1: replication fork (RF) (mixed)
DNA 1: GACGCTGCCGAATTCTACCAGTGCCTTGCTAGGACATCTTTGCCCACCTGCAGGTTCACCC
DNA 2: GGACATCTTTGCCCACCTGCAGGTTCACCC
DNA 3: TGGGTGAACCTGCAGGTGGGCAAAGATGTCC
DNA 4: GGGTGAACCTGCAGGTGGGCAAAGATGTCCCAGCAAGGCACTGGTAGAATTCGGCAGCGTC
B2: Atto565 dsDNA 70 bp with 9-nt homology (dsDNA)
DNA 1: CCGGAGGCCTTAGGCCTTAGGCCTTAGGCCTTCAGCTGTTAGCCTTAGCTAGCTAGCTAGCTAGCTAGCT
DNA 2: AGCTAGCTAGCTAGCTAGCTAGCTAAGGCTAACAGCTGAAGGCCTAAGGCCTAAGGCCTAAGGCCTCCGG
B3: D-loop (mixed)
DNA 1: CATTGCATATTTAAAACATGTTGGAAGGCTCGATGCATGCTGATAGCCTACTAGTGCTGCTGGCTTTCAAATGACCTCTTATCAAGTGAC
DNA 2: GTCACTTGATAAGAGGTCATTTGAATTCATGGCTTAGAGCTTAATTGCTGAATCTGGTGCTGGGATCCAACATGTTTTAAATATGCAATG
DNA 3: CTGCTACGATGCTAGTCGTAGCTCGGCAGTCGTAGCAGGTTCCCAGCACCAGATTCAGCAATTAAGCTCTAAGCCATGAA
B4: DNA bubble (mixed)
DNA 1: B3 DNA 1
DNA 2: B3 DNA 2

Experiments:
BRCA1;BARD1 = BRCA1;BARD1 (human?;human?, UniProt P38398;Q99728 1-1863;1-777, |); experiment: EMSA
RAD51;BRCA1;BARD1 = RAD51;BRCA1;BARD1 (human;human?;human?, UniProt Q06609;P38398;Q99728 1-339;1-1863;1-777, ||); experiment: single-molecule DNA curtain
RAD51 = RAD51 (human, UniProt Q06609 1-339); experiment: single-molecule DNA curtain
BARD1 = BARD1 (UniProt Q99728 1-777); experiment: Southwestern
BRCA1 = BRCA1 (UniProt P38398 1-1863); experiment: Southwestern
BARD1 124-270 = BARD1 124-270 (UniProt Q99728 124-270); experiment: EMSA
Sequence of BARD1 124-270 (Q99728 124-270): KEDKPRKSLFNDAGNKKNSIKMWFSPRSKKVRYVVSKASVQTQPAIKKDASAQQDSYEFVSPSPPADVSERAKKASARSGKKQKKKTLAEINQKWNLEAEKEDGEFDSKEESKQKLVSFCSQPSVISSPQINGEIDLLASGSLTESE

Sequence of BARD1 (Q99728 whole entry): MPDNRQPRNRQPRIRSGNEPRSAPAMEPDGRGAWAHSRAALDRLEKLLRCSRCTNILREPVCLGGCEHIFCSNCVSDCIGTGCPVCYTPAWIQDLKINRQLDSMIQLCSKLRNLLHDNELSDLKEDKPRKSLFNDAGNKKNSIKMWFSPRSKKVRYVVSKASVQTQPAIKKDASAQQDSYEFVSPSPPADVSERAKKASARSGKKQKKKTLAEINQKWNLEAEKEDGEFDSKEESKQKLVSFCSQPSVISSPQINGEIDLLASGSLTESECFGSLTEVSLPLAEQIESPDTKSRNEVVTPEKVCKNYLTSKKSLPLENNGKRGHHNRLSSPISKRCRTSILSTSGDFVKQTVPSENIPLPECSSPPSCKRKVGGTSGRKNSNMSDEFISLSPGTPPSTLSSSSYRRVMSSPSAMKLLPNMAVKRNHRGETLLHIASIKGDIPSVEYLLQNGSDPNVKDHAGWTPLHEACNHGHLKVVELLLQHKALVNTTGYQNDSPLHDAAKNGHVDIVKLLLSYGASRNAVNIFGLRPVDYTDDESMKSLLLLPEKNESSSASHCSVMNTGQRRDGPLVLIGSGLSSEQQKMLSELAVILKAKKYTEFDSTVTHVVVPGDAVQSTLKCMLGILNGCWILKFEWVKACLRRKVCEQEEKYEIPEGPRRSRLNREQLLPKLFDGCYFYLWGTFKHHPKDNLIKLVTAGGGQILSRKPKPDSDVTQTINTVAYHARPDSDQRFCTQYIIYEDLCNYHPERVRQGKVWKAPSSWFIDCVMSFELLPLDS
Sequence of RAD51 (Q06609 whole entry): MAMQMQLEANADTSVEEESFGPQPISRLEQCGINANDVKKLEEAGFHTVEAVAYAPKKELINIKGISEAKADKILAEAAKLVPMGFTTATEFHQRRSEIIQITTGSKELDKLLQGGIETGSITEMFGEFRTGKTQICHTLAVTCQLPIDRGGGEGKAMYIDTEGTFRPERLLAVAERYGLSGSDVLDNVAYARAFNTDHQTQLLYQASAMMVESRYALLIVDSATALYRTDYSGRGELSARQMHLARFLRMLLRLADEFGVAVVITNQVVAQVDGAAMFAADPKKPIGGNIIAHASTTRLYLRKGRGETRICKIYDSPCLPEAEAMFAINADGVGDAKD

Binder	binding result (BRCA1;BARD1)	binding result (RAD51;BRCA1;BARD1)	binding result (RAD51)	binding result (BARD1)	binding result (BRCA1)	binding result (BARD1 124-270)
B1	binds	–	–	–	–	–
B2	–	binds	binds	–	–	–
B3	binds	–	–	binds	binds	binds
B4	binds	–	–	–	–	binds
